The values that follow come from US20160144003A1 (Scripps Research, published 2016).

As usually defined, the Kd is the equilibrium constant for the complex coming apart.

T1: human GlyRS P234KY mutant (human, UniProt P41250 55-739)
T1 sequence: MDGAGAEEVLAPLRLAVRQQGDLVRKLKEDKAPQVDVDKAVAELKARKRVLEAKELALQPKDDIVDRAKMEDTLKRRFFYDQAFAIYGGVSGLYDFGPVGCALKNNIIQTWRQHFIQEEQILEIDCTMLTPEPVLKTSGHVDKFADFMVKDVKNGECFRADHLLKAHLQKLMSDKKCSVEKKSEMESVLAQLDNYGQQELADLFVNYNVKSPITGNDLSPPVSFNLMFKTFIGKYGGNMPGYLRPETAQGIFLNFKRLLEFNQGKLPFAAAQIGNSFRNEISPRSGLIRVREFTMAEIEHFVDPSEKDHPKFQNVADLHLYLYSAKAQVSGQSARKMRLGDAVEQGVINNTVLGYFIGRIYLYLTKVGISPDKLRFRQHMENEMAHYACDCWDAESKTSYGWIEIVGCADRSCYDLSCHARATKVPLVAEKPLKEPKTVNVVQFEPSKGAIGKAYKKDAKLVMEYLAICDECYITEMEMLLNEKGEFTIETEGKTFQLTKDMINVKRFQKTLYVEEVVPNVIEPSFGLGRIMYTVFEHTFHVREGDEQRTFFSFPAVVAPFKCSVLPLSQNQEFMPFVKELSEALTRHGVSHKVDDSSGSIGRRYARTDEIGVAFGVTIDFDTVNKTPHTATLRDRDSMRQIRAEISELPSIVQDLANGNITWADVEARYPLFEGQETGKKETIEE

B1: wild-type human glycyl-tRNA synthetase (GlyRS) (enzyme)
chain: MDGAGAEEVLAPLRLAVRQQGDLVRKLKEDKAPQVDVDKAVAELKARKRVLEAKELALQPKDDIVDRAKMEDTLKRRFFYDQAFAIYGGVSGLYDFGPVGCALKNNIIQTWRQHFIQEEQILEIDCTMLTPEPVLKTSGHVDKFADFMVKDVKNGECFRADHLLKAHLQKLMSDKKCSVEKKSEMESVLAQLDNYGQQELADLFVNYNVKSPITGNDLSPPVSFNLMFKTFIGPGGNMPGYLRPETAQGIFLNFKRLLEFNQGKLPFAAAQIGNSFRNEISPRSGLIRVREFTMAEIEHFVDPSEKDHPKFQNVADLHLYLYSAKAQVSGQSARKMRLGDAVEQGVINNTVLGYFIGRIYLYLTKVGISPDKLRFRQHMENEMAHYACDCWDAESKTSYGWIEIVGCADRSCYDLSCHARATKVPLVAEKPLKEPKTVNVVQFEPSKGAIGKAYKKDAKLVMEYLAICDECYITEMEMLLNEKGEFTIETEGKTFQLTKDMINVKRFQKTLYVEEVVPNVIEPSFGLGRIMYTVFEHTFHVREGDEQRTFFSFPAVVAPFKCSVLPLSQNQEFMPFVKELSEALTRHGVSHKVDDSSGSIGRRYARTDEIGVAFGVTIDFDTVNKTPHTATLRDRDSMRQIRAEISELPSIVQDLANGNITWADVEARYPLFEGQETGKKETIEE
notes: Used as a GlyRS-His fusion protein in the neuropilin assays; also called WT GlyRS; WT; not shown: His tag
B2: human GlyRS G240R mutant (enzyme)
chain: B1 chain with G240R
notes: GlyRS-His fusion protein in the pull-down and cell assays; also called G240R GlyRS; not shown: His tag
B3: human GlyRS S581L mutant (enzyme)
chain: B1 chain with S581L
notes: also called S581L GlyRS; not shown: His tag
B4: human GlyRS L129P mutant (enzyme)
chain: B1 chain with L129P
notes: also called L129P GlyRS; L129P-His; not shown: His tag
B5: human GlyRS G598A mutant (enzyme)
chain: B1 chain with G598A
notes: Only in the dimerization measurement (sedimentation equilibrium); also called G598A GlyRS; not shown: the tag is not described
B6: human GlyRS G526R mutant (enzyme)
chain: B1 chain with G526R
notes: GlyRS-His fusion protein in the pull-down assay; also called G526R GlyRS; not shown: His tag
B7: recombinant neuropilin-1/Fc extracellular domain chimeric protein (R&D systems) (Fc fusion)
chain: FRSDKCGGTIKIENPGYLTSPGYPHSYHPSEKCEWLIQAPEPYQRIMINFNPHFDLEDRDCKYDYVEVIDGENEGGRLWGKFCGKIAPSPVVSSGPFLFIKFVSDYETHGAGFSIRYEIFKRGPECSQNYTAPTGVIKSPGFPEKYPNSLECTYIIFAPKMSEIILEFESFDLEQDSNPPGGVFCRYDRLEIWDGFPEVGPHIGRYCGQKTPGRIRSSSGILSMVFYTDSAIAKEGFSANYSVLQSSISEDFKCMEALGMESGEIHSDQITASSQYGTNWSVERSRLNYPENGWTPGEDSYREWIQVDLGLLRFVTAVGTQGAISKETKKKYYVKTYRVDISSNGEDWITLKEGNKAIIFQGNTNPTDVVFGVFPKPLITRFVRIKPASWETGISMRFEVYGCKITDYPCSGMLGMVSGLISDSQITASNQGDRNWMPENIRLVTSRTGWALPPSPHPYINEWLQVDLGDEKIVRGVIIQGGKHRENKVFMRKFKIAYSNNGSDWKMIMDDSKRKAKSFEGNNNYDTPELRAFTPLSTRFIRIYPERATHSGLGLRMELLGCEVEVPTAGPTTPNGNPVDECDDDQANCHSGTGDDFQLTGGTTVLATEKPTIIDSTIQSEFPTYGFNCEFGWGSHKTFCHWEHDSHAQLRWRVLTSKTGPIQDHTGDGNFIYSQADENQKGKVARLVSPVVYSQSSAHCMTFWYHMSGSHVGTLRVKLHYQKPEEYDQLVWMVVGHQGDHWKEGRVLLHKSLKLYQVIFEGEIGKGNLGGIAVDDISINNHIPQEDCAKPTDLDKKNTEIKIDETGSTPGYEEGKGDKNISRKPGNVLKTLDPI

Where a chain is given by its changes, count along the chain named. Names and notes keep the numbering of the source.

Data set [1] addresses T2, GFP-neuropilin (NRP1) fusion protein on transfected cells.
T2 construct: whole, on cells; also called GFP-NRP1; NRP1-EGFP
Put plainly: cell counts of confocal images, N2a cells expressing GFP-NRP1 incubated with GlyRS. The procedure:
Confocal microscopy analysis was performed to assess the influence of GlyRS and CMT-associated GlyRS mutants on neuropilin-mediated neurite outgrowth. Mouse neuroblastoma N2a cells were transfected with either control pEGFP or NRP1-EGFP. After 24 hours, the cells were plated onto Fibronectin coated coverslips. Then N2a cells were then incubated with or without 200 nM wild-type GlyRS or CMT-associated GlyRS mutants (L129P, G240R, G526R) at 4° C. for 1 hour. Cells were then washed three times with DPBS buffer and fixed with 4% formaldehyde. The coverslips were mounted with Prolong Gold Antifade Reagent with DAPI (invitrogen) at 25° C. for overnight. Images were then taken using the Bio-Rad (Zeiss) Radiance 2100 Rainbow laser scanning confocal microscope (LSCM).

Data set [2] deals with the molecule itself. In words: sedimentation equilibrium AUC, monomer-dimer self-association. The procedure: FIGS. 8A-8F show sedimentation equilibrium analysis of WT and CMT-causing mutant human GlyRS proteins. Three cells containing different concentrations of each protein sample were centrifuged at 9000 rpm (solid curved line), 14000 rpm (mixed-dash curved line), and 19000 rpm (dash curved line). Absorbance data for each cell was collected at 280 nm and 230 nm wavelength. The meniscus (vertical dot-dash line) in each cell was set manually, while the bottom (vertical dash line) was allowed to float. Data within the fit limits (vertical solid lines) was globally fitted to the monomer-dimer self-association model in SEDPHAT. Data beyond approximately 1.5 absorbance was omitted in case of non-linearity of the detection instrumentation. The fits for the 9000, 14000, and 19000 rpm data are represented by the solid, mixed dash, and dash lines respectively.
WT and mutant GlyRSs were cloned and expressed as described (see Xie et al., Acta Crystallogr Sect F Struct Biol Cryst Commun 62:1243-1246, 2006), and purified to more than 99% homogeneity in three steps: nickel affinity, Mono Q and size exclusion chromatography. Sedimentation equilibrium experiments were performed in a Beckman Optima XL-1 analytical ultracentrifuge with integrated optical systems. All protein samples (0.5 μM, 1.25 μM, 2.5 μM) were prepared in DPBS buffer (2.67 mM potassium chloride, 1.47 mM potassium phosphate monobasic, 137.93 mM sodium chloride and 8.06 mM sodium phosphate dibasic, pH 7.2) and purified by size exclusion chromatography immediately prior to centrifugation. The buffer density and viscosity, and the protein partial specific volume were determined by SEDPHAT (see Lebowitz et al., Protein Sci. 11:2067-2079, 2002). Samples (180 μL) in two-channel cells were centrifuged in a Beckman An-60 Ti rotor at speeds of […] at 4° C. Equilibrium was reached after 36 hours for each speed and verified by comparison with a second scan taken every 6 hours. Data was collected at 280 nm and […]. Data sets consisting of 18 curves per protein (3 concentrations, 3 rotor speeds and 2 wavelengths each) were analyzed by global fitting to the monomer-dimer self-association model using the program SEDPHAT (Id.).

The target of data set [3] is T1, human GlyRS P234KY mutant. In words: bio-layer interferometry (Octet RED), NRP1-Fc on Protein G biosensors, global 1:1 fit of three concentrations. For orientation: In BLI a coated tip is dipped into the sample, and binding shifts an interference pattern.
The data set “human GlyRS L129P mutant” deals with B4. Put plainly: bio-layer interferometry (Octet RED), NRP1-Fc on Protein G biosensors, global 1:1 fit of five concentrations. The procedure: FIGS. 15A-15C show the binding affinity between various GlyRS polypeptides and neuropilin-1 (NRP-1). In FIG. 15A, the binding between NRP-1 and GlyRS (wild-type (WT), CMT-associated mutant L129P, and CMT-associated mutant P234KY) at 1 μM was compared by bio-layer interferometry in Octet RED system. No binding was detected between NRP-1 and WT GlyRS, but strong binding was detected between NRP-1 and each of the CMT-associated mutants L129P and P234KY.
The binding constants between GlyRS CMT mutants (L129P and P234KY) and Neuropilin-1 (NRP1) were measured using Octet RED (ForteBio, Inc.). Octet RED utilizes bio-layer interferometry (BLI) technology that enables real-time analysis of protein-protein interactions on the surface of a fiber optic biosensor. The protein of interest is firstly immobilized on the biosensor and then exposed to the protein analyte in solution. The binding of two proteins changes the optical properties of the biosensor, leading to a shift in the wavelength of reflected light. This shift in wavelength allows the measurement of the determination of the binding constant.

T2 sequence (O14786 22-923): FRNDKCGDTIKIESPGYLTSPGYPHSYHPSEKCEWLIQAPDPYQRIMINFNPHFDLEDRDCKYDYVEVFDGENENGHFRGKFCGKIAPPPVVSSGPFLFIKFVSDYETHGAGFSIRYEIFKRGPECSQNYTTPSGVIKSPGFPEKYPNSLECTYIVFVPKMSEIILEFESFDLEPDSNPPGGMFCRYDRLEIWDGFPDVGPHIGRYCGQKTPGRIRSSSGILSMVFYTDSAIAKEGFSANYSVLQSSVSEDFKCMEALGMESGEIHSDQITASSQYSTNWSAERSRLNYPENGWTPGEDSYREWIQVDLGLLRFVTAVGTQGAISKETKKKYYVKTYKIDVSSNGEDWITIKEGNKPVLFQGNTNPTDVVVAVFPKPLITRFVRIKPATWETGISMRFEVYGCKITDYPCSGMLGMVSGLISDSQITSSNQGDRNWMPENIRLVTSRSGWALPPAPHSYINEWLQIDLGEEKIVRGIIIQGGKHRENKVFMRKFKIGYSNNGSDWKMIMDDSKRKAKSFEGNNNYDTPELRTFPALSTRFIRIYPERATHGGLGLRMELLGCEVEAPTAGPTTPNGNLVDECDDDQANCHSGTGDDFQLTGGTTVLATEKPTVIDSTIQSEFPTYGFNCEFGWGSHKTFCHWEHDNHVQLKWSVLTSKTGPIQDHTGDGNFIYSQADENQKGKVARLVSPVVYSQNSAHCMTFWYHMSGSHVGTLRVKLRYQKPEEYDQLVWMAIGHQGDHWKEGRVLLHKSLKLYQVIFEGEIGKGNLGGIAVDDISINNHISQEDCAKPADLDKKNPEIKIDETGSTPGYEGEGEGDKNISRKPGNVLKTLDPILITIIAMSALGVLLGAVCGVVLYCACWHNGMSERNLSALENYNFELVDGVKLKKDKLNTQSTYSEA

In data set [1], B1 displayed a Cell number % of 8.6%. The Kd in data set [2] turned out to be 0.56 µM.

B2 showed a Cell number % in data set [1] of 42%. Also, in data set [2], the affinity, expressed as Kd, was 11 µM and the “fold increase in Kd of dimerization relative to WT GlyRS” value worked out at 20 fold.

For B3, in data set [2], binding was characterised by a dissociation constant (Kd) of 0.19 µM and the “fold decrease in Kd of dimerization relative to WT GlyRS” value is 3 to 4 fold.

B4: the Cell number % in data set [1] stood at 37.7%. Moreover, in data set [2], the Kd was found to be 41 µM and the “fold increase in Kd of dimerization relative to WT GlyRS” value was 73 fold.

In data set [2], B5 registered a Kd of 0.39 µM.

With B6, the Cell number % in data set [1] was determined as 20.7%. The “fold decrease in Kd of dimerization relative to WT GlyRS” value in data set [2] fell in the range of 3 to 4 fold.

For B7, the dissociation constant (Kd) in data set [3] amounted to 0.162 µM; with human GlyRS L129P mutant, 0.0368 µM.
